From patent publication US20240350646A1, “METHODS AND COMPOSITIONS FOR DELIVERY TO AND ACROSS THE BLOOD BRAIN BARRIER” (NUtech Ventures, priority 2021, published 2024)
One block for each molecule: values may come before it.

Assays:
claudin-1 = target: T1, claudin-1 (Mus musculus, UniProt O88551); settings: corpus callosum and hippocampus, in vivo
T1 sequence (O88551 1-211): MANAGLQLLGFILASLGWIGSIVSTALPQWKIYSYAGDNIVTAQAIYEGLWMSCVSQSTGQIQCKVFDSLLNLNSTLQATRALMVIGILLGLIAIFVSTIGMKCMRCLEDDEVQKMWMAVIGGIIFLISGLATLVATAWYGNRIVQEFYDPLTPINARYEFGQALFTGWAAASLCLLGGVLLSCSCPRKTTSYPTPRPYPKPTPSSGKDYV
Method: A fluorescence microscope (LSM800, Zeiss) was used to take the fluorescence image of mice brain. Mice were transcardially perfused after 2 h of MRI with 4% paraformaldehyde (PFA) in Dulbecco's phosphate-buffered saline (DPBS, Thermo Fisher Scientific, Waltham, MA). Brain tissue was collected, trimmed, and fixed in 4% buffered PFA for 24 h. The brains were moved into 30% sucrose in DPBS for 3 d at 4° C. for cryoprotection. The brains were then embedded in 2.6% carboxymethylcellulose (CMC, C4888, Sigma-Aldrich, St. Louis, MO), frozen on dry ice, and sliced coronally at a 15 μm thickness with cryotome (Leica Biosystems, Wetzlar, Germany). The brain slices were laid on poly-L-lysine coated microscope slides (Thermo Fisher Scientific) and dried overnight at RT. […]
Images were acquired with confocal microscopy at 40× objective lens magnification. Quantitative image analysis was performed with ImageJ software on at least two randomly selected viewing fields for each region for each mouse. The fluorescence signal of claudin-1 was thresholded to only integrate the density above 20 to remove the background fluorescence. Gamma correction was performed only on the representative images after the immunofluorescence quantification with shadows value of 0, midtones value of 0.26, and highlights value of 100 for all CMYK channels with Adobe Photoshop.

human claudin-1 = target: T2, human claudin-1 (Homo sapiens, UniProt O95832); test: In vitro immunofluorescence of NP binding in bEnd.3 cells transfected with human claudin-1 plasmid; type: cell-based; settings: cells transfected to express human claudin-1; 4 hrs
T2 construct: made in house
T2 sequence (O95832 1-211): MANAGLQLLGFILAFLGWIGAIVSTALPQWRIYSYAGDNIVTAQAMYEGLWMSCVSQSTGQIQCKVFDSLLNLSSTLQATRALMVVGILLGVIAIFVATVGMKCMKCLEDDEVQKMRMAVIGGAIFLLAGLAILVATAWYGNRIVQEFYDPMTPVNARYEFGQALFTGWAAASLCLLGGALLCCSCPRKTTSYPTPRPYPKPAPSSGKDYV
Method: bEnd.3 cells were cultured according to the ATCC culture conditions in DMEM. These cells were subjected to ethanol (50 mM) treatment to induce claudin-1 expression and incubated with C1C2-NP for 4 hrs. For determining attachment of the C1C2-NP to human claudin-1, human claudin-1 encoded PCMV script plasmid was overexpressed in bEnd.3 cells and then incubated with C1C2-NP for 4 hrs.

[1] = MST check of non-specific binding to detergent micelles; settings: NP fixed at 1 μM, β-DDM varied; data not shown
Method: Human claudin-1 was expressed and purified as reported previously (Vecchio & Stroud, 2019, PNAS USA, 116:17817-24). MST measurements were performed using a Monolith instrument (NanoTemper Technologies). For experiments with human claudin-1, the assay buffer contained 10 mM Tris HCl, pH 8.0, 100 mM NaCl, 4% glycerol, and 0.04% n-Dodecyl-β-D-Maltopyranoside (β-DDM). NPs and peptides were labeled with AF647 prior to MST analysis as described above. For the binding experiments, the concentration of human claudin-1 was varied from 2.2-73,500 nM and the AF647-labeled C1C2-NP was fixed at 70 nM, while the AF647 labeled NPs and AF647 labeled C1C2 peptide were fixed at 1 and 0.3 μM, respectively. Binding of the AF647 labeled C1C2-NP to human claudin-3, -4, and -9 were tested using 0.4-14000 nM, 0.8-28000 nM, and 0.6-20000 nM, respectively; with the AF647 labeled C1C2-NP fixed at 70 nM. This assay buffer was similar, except β-DDM was replaced with 0.1% n-Undecyl-β-D-Maltopyranoside (beta-UDM). […] All experiments were conducted at 23° C. using the nano-red channel of the Monolith instrument and the data were analyzed by using either Monolith analysis software or Graph Pad Prism, version 9 (Graph Pad Software, San Diego, California).

human claudin-4 [2] = target: T3, human claudin-4 (human, UniProt O14493 1-209, limits assumed); test: MST, sigmoidal dose-response fit (GraphPad Prism) of the FIG. 10A data; confidence interval undefined [panel B]
T3 sequence (looked up): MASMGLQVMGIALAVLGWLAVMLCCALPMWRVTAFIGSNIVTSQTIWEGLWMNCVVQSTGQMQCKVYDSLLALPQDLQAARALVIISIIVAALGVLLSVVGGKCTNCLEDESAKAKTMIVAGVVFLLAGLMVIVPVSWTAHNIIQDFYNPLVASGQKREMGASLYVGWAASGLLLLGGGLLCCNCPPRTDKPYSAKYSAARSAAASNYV
Method: (§1) FIG. 10A is a graph showing binding of human claudins 3, 4 and 9 to C1C2-NPs using microscale thermophoresis. […] FIG. 10C is a graph showing the binding of human claudins 4 and 9 to control NPs monitored using microscale thermophoresis. […] Data fitting for human claudins 3, 4 and 9 were performed using Graph Pad Prism.
(§2) Human claudin-1 was expressed and purified as reported previously (Vecchio & Stroud, 2019, PNAS USA, 116:17817-24). MST measurements were performed using a Monolith instrument (NanoTemper Technologies). For experiments with human claudin-1, the assay buffer contained 10 mM Tris HCl, pH 8.0, 100 mM NaCl, 4% glycerol, and 0.04% n-Dodecyl-β-D-Maltopyranoside (β-DDM). NPs and peptides were labeled with AF647 prior to MST analysis as described above. For the binding experiments, the concentration of human claudin-1 was varied from 2.2-73,500 nM and the AF647-labeled C1C2-NP was fixed at 70 nM, while the AF647 labeled NPs and AF647 labeled C1C2 peptide were fixed at 1 and 0.3 μM, respectively. Binding of the AF647 labeled C1C2-NP to human claudin-3, -4, and -9 were tested using 0.4-14000 nM, 0.8-28000 nM, and 0.6-20000 nM, respectively; with the AF647 labeled C1C2-NP fixed at 70 nM. This assay buffer was similar, except β-DDM was replaced with 0.1% n-Undecyl-β-D-Maltopyranoside (beta-UDM).

human claudin-4 [3] = target: T3, human claudin-4; test: MST, sigmoidal dose-response fit (GraphPad Prism) of the FIG. 10A data, M is the unit of the concentration axis of panel A; confidence interval undefined [panel B]
Method: as §1, §2

Localization relative to claudin-1 immunofluorescence staining (claudin-1): co-localize
Binding to bEnd.3 cells (human claudin-1): High NP binding
Non-specific binding to β-DDM micelle [1]: No significant binding
Molecule: C1C2-NP: PEG diacid coated ultrasmall Gd NP conjugated with C1C2 peptide SSVSQSTGQIQSKVDSLLNLNSTQATR (SEQ ID NO: 6); claudin-1 targeted (Ac-SSVSQSTGQIQSKVDSLLNLNSTQATR-NH2; also: conjugated to PEG diacid coated ultrasmall Gd nanoparticle)

LogEC50 (human claudin-4 [2]): -4.7
EC50 (human claudin-4 [3]): 20.1 µM
B1: C1C2-NP (C1C2 peptide conjugated to PEG diacid coated ultrasmall Gd nanoparticles) (peptide)
peptide: Ac-SSVSQSTGQIQSKVDSLLNLNSTQATR-NH2
modifications: not fully specified; also: conjugated by EDC-NHS chemistry to PEG diacid on Gd oxide nanoparticle surface (19 peptides per 3.5 nm particle)
notes: The protein part is the C1C2 peptide; the core is not a protein; also called C1C2-NPs; C1C2 NPs
